Target: T1, human integrin α5β1 on cells (endogenous, HUVEC; tumor or endothelial-expressed) (human, UniProt P08648 42-1049; P05556 21-798)
T1 construct: whole, on cells; also called cell surface integrin α5; endogenous α5β1
Test: FACS on HUVEC, geometric mean against mAb concentration, two-state equilibrium model
Method: The 22B5/DLE antibody was tested for its binding affinity to cell surface integrin α5 using a FACS assay, employing endogenous human integrin α5β1 expressing cells (HUVEC). Briefly, the cells were detached using trypsin-EDTA and washed with cold PBS. After being aliquoted into 96-well plates, the cells were blocked by serum and incubated with different concentrations of specific mAb for 1 hour at 4° C. Subsequently, the cells were washed and incubated with an anti-human κ secondary antibody conjugated with the R-PE fluorophore and analyzed using a FACSCalibur flow cytometer. 10,000 events were collected for each sample without applying any gating. For KD determination, the Geometric Mean of each sample histogram was calculated and plotted as a function of the mAb concentration. KD was calculated after fitting to a two-state equilibrium model.

T1 sequence (P08648 42-1049, chain 1 of 2): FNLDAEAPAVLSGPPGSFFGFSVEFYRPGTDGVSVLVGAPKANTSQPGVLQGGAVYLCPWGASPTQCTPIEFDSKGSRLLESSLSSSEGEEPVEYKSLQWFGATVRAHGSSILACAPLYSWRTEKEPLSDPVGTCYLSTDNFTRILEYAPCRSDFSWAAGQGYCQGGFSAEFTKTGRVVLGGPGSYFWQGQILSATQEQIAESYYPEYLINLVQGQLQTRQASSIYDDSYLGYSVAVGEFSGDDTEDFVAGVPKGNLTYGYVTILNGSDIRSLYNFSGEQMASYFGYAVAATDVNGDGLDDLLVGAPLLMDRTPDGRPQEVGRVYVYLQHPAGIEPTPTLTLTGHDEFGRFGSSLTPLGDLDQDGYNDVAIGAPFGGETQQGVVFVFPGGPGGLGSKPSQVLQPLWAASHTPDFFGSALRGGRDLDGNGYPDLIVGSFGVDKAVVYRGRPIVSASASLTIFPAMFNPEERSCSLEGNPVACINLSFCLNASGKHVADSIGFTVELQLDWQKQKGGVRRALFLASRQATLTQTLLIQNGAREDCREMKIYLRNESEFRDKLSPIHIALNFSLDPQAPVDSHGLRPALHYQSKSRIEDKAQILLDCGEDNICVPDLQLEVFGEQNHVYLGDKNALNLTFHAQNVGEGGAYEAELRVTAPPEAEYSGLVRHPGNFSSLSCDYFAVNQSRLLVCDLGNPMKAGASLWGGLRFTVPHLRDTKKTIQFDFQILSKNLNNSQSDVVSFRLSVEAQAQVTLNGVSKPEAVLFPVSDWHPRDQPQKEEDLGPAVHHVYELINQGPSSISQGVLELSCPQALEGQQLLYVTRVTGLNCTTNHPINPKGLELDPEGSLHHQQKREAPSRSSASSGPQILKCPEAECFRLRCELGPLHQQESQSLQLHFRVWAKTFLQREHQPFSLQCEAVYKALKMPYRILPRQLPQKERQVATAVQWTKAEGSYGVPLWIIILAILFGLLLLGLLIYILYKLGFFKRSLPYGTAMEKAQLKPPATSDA
T1 sequence (P05556 21-798, chain 2 of 2): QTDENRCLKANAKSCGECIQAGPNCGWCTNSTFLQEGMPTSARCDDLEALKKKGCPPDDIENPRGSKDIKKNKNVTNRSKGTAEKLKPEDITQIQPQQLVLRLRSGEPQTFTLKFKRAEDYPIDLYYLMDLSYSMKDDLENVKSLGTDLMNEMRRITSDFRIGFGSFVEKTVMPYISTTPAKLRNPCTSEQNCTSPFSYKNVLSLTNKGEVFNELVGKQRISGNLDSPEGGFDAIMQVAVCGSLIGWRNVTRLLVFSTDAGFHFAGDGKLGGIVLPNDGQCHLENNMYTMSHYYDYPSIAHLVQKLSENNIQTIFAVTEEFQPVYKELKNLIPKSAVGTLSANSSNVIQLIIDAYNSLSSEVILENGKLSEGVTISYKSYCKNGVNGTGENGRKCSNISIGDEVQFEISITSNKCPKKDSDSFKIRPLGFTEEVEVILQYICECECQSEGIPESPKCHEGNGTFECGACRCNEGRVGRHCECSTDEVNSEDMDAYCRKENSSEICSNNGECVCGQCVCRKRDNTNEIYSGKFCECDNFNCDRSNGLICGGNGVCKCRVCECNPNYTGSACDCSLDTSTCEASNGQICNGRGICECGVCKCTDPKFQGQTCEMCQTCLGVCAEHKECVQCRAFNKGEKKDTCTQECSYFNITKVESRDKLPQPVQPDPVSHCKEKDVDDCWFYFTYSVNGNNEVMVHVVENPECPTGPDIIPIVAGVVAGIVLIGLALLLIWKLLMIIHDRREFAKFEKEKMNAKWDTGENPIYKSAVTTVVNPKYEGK

Kd: 2.15 nM
B1: 22B5/DLE (antibody, human IgG1, kappa)
heavy: QLQLQESGPGLVKPSETLSLTCTVSGGSISSSSYWGWIRQPPGKGLEWIGSIYYSGRNYNNPSLKSRVTISVDTSKNQFSLKLSSVTAADTAVYYCARHYYGSGSSYYYYDLDVWGQGTTVTVSSASTKGPSVFPLAPSSKSTSGGTAALGCLVKDYFPEPVTVSWNSGALTSGVHTFPAVLQSSGLYSLSSVVTVPSSSLGTQTYICNVNHKPSNTKVDKKVEPKSCDKTHTCPPCPAPELLGGPDVFLFPPKPKDTLMISRTPEVTCVVVDVSHEDPEVKFNWYVDGVEVHNAKTKPREEQYNSTYRVVSVLTVLHQDWLNGKEYKCKVSNKALPLPEEKTISKAKGQPREPQVYTLPPSREEMTKNQVSLTCLVKGFYPSDIAVEWESNGQPENNYKTTPPVLDSDGSFFLYSKLTVDKSRWQQGNVFSCSVMHEALHNHYTQKSLSLSPGK
light: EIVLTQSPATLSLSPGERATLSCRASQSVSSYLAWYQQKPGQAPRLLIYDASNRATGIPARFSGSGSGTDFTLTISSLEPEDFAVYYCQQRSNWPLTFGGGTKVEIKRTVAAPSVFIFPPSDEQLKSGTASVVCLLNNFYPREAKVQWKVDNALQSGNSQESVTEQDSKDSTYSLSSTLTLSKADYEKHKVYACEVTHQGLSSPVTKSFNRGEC
notes: Human IgG1 with Fc mutations S247D, A338L, I340E; the VH already holds the germline back-mutations I30S and N33S; also called 22B5 IgG1 DLE; 22B5 G1 DLE
